Assay results taken from the supplement of paper PMC10567573.

B1: TRIM39 (parent)
chain: ERDFPCPVCRKTSRYRSLRPNRQL

Variants of: B1
Assay: protein stability index of a GFP-peptide fusion (GPS, HEK-293T) (PSI 1-6); higher = more stable
Settings: c terminus: a fixed tail appended
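Also: lentivirally expressed fusions sorted by FACS into six bins by GFP to DsRed ratio, PSI derived from sequencing read proportions per bin multiplied by bin number.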

Protein stability index, by site and new letter:
C9: G 3.91, S 3.77, Q 3.81, F 2.45, M 3.41, T 3.77, A 3.79, N 2.78, I 3.29, K 3.42, Y 3.62, P 2.92, D 4.01, H 2.56, V 3.26
R2: M 2.28, S 1.9, E 2.06, H 2.33, K 2.02, V 3.06, A 2.13, Q 2.27, L 1.63, C 2.01, G 1.57, W 2.18, T 1.91, Y 2.22, N 1.86, F 1.83, D 2.1, P 1.78, I 2.06
F4: I 2.35, V 2.39, C 2.12, R 2.09, D 2.93, M 2.48, N 2.89, P 2.41, L 2.1, Y 2.84, G 2.3, K 2.86, E 2.02, S 1.81, H 3.14, Q 2.13, T 1.82
K11: I 1.21, Y 1.8, S 2.25, W 2.84, H 3.77, C 2.55, P 2.54, F 1.88, Q 2.4, A 2.45, R 1.85, N 3.36, D 1.7, V 1.63, E 1.17, M 1.65, G 1.75
V8: A 2.89, D 2.2, Y 1.95, Q 2.35, R 3.23, N 2.43, I 2.38, S 3.84, C 2.66, M 2.31, H 2.34, K 2.68, F 1.41, L 1.96, T 3.06, G 2.75, P 3.91, E 1.72
D3: K 2.64, H 1.78, P 2.06, E 1.64, T 1.84, W 2.15, I 1.39, N 2.5, M 2.56, C 2.08, F 2.93, Q 2.62, R 1.99, A 2.2, S 2.64, L 1.96, V 2.48, Y 1.42, G 1.6
C6: A 2.69, L 3.19, F 2.03, G 3.97, Q 3.24, V 3.23, K 3.13, T 3.02, M 3.1, D 3.74, H 3.61, I 3.24, Y 3.21, W 2.01, S 3.17
T12: D 1.37, G 2.05, A 2.64, P 1.55, Y 1.7, L 2.13, M 2.36, V 2.02, I 1.71, Q 1.6, K 2.64, H 1.55, F 2.88, W 2.44, C 2, S 2.17
S13: L 2.4, I 2.4, A 2.01, C 2.82, N 2.12, K 1.77, G 2.52, E 2.21, M 2.61, D 2.56, F 2.46, P 2.74, H 2.82
R10: G 4.1, M 2.88, E 1.91, A 1.88, P 3.13, Q 2.08, S 1.15, T 2.16, I 2.6, C 3.16, F 1.74, L 2.45, N 2.22, H 2.53, Y 2.03, V 2.04, K 2.14, D 2.89
